Patent US6797522B1, “Synthetic receptors” (The Trustees of Columbia University in the City of New York, priority 1996, dated 2004)

Columns and labels:
[1] = biological target: T1, Leu Enkephalin (Homo sapiens, UniProt P01210); experiment: Color screening assay of bead-bound receptor libraries with Disperse Red-labelled substrate; type: binding; details: Table 5, label = AA1-AA5
T1 construct: composed of two pentapeptides Tyr-Gly-Gly-Phe-LeuOH and Tyr-Gly-Gly-Phe-MetOH; purchased Bachem, Inc
Experimental: (§1) The synthetic receptor library is then assayed to find those members of the library which have the desired interaction with the labeled substrate. In the case where the desired interaction is binding to the substrate, the synthetic receptor library is mixed with a solution of the labeled substrate and those library members that bind to the labeled substrate are selected. This procedure is particularly simple when the synthetic receptor library members are bound to a solid support as shown in Scheme 2. In that case, solid support particles having receptors which bind the labeled substrate accumulate color or fluorescence or radioactivity (depending on the nature of the label used). Depending on the concentration of the labeled substrate used, the assay can be adjusted to detect binding of any desired strength: for example, if the amount of labeled substrate in the presence of the receptor library is adjusted to give a 100 μM concentration of free (unbound) labeled substrate, then assay will only detect template-substrate binding with association constants (k) of (100 μM)^−1 or greater.
(§2) A color assay method was developed for screening receptor library beads. The color dye used is Disperse Red 1 (available from Aldrich Inc.), a neutral diazo dye whose λmax is at 502 nm. Red color in various organic solvents is visible at concentration as low as 100 μM.
(§3) After receptor beads are treated with a substrate which has a color dye attached on it, the bead binding the substrate is stained and can be easily identified in a background of many colorless beads. The stained bead is the removed from the library by a microsyringe, and subjected to decode to identify its structure. The decoding process involves three operations: a) photolysis of the beads, b) silylation of liberated alcohols, c) injection into GC-EC machine. Once identified, the receptor is then resynthesized on large quantities of beads for confirmatory binding studies. […] From this spectrum, the structure of the receptor is identified as C3—OGLY-leu-phe-Ac, C7—OGLY-ala-Lys-Ac.
(§4) Some additional binding studies for Peptidosteroidal receptors with beta-Casomorphinamide and Des-Tyr Leu Enkahphalin, are shown in the following table 5 and are compared to the Leu Enkaphalin and Met Enkaphalin. [drawing 47]

[2] = biological target: T2, Met Enkephalin (Homo sapiens, UniProt P01210); experiment: as above; type: binding; details: Table 5, label = AA1-AA5; for Kd: read-out: KD-MAX; for BOUND: percentage of library beads bound
T2 construct: composed of two pentapeptides Tyr-Gly-Gly-Phe-LeuOH and Tyr-Gly-Gly-Phe-MetOH; purchased Bachem, Inc
Experimental: as §1, §2, §3, §4

| Kd ([1]; read-out: KD-MAX) | BOUND ([1]; percentage of library beads bound) | Kd [2] | BOUND [2] | Substance |
| --- | --- | --- | --- | --- |
| 81 µM | 0.7% | – | – | GLY-ASP-PRO-PRO-LEU (GDPPL; printed: GLY-ASP-PRO-PRO-LEU) |
| – | – | 75 µM | 0.8% | PRO-THR-LYS-PHE-ALA (PTKFA; printed: PRO-THR-LYS-PHE-ALA) |
| – | – | 85 µM | 0.5% | GLY-PHE-PRO-PRO-LEU (GFPPL; printed: GLY-PHE-PRO-PRO-LEU) |
